The results in this text go back to patent US20250376529A1 (Amgen, published 2025).

The labels stand for the following.
B1: 5C2.007 (antibody, human IgG1, kappa, N297G, V domains shown)
VH: QVPLVQSGAEVKKPGASVKVSCKASGYTFTGYYIHWVRQAPGQGLEWMGWINPESGGTDYSQRFQGRFTMTRDTSISTAYMELNRLRSDDTAVYYCAREATIFGMVIVPFDYWGQGTLVTVSS
VL: not shown
B2: 13H12 (antibody, human IgG1, kappa, N297G, V domains shown)
VH: B1 VH with E54D, N84S
VL: not shown
B3: 13H12.004 (antibody, human IgG1, kappa, N297G, V domains shown)
VH: B1 VH with E54D, F68V, N84S
VL: not shown
B4: 13H12.002 (antibody, human IgG1, kappa, N297G, V domains shown)
VH: B1 VH with F68V, N84S
VL: not shown
B5: 13H12.003 (antibody, human IgG1, kappa, N297G, V domains shown)
VH: B1 VH with N84S
VL: not shown
B6: 13H12.006 (antibody, human IgG1, kappa, N297G, V domains shown)
VH: B1 VH with F68V, N84S
VL: not shown
B7: 12H11.002 (antibody, human IgG1, kappa, N297G, V domains shown)
VH: QVPLVQSGAEVKKPGASVKVSCKASGYTFTGYYIHWVRQAPGQGLEWMGWISPNQGETNYAQKFQDRVTMTRDTSISTAYMELSRLRSDDTAVYYCAREATIFGMLIVPFDYWGQGTLVTVSS
VL: DIVMTQSPDSLSVSLGERATINCKSSQSVLSSSNNKNYLAWYQQKPGQPPNLLIYWTSTRDSGVPDRFSGSGSGTDFTLTINSLQAEDVAVYYCQQYYRTPWTFGQGTKVEIKR
B8: 12H11.005 (antibody, human IgG1, kappa, N297G, V domains shown)
VH: B7 VH with Q55N
VL: B7 VL
B9: 11C1.008 (antibody, human IgG1, kappa, N297G, V domains shown)
VH: B7 VH with E46V, Q55S, E57D, N59S, Y95F
VL: B7 VL
B10: 11C1.002 (antibody, human IgG1, kappa, N297G, V domains shown)
VH: B7 VH with E46V, Q55S, N59S, Y95F
VL: not shown
B11: 12H11.006 (antibody, human IgG1, kappa, N297G, V domains shown)
VH: B7 VH with Q55N, E57D
VL: B7 VL
B12: 12H11.008 (antibody, human IgG1, kappa, N297G, V domains shown)
VH: B7 VH with Q55N, A97T
VL: B7 VL
B13: 12H11.010 (antibody, human IgG1, kappa, N297G, V domains shown)
VH: B7 VH with Q55N, E57D
VL: not shown
B14: 12H11.007 (antibody, human IgG1, kappa, N297G, V domains shown)
VH: B7 VH with E57D, A97T
VL: B7 VL
B15: 12H11.003 (antibody, human IgG1, kappa, N297G, V domains shown)
VH: B7 VH with E57D
VL: B7 VL
B16: 11C1.004 (antibody, human IgG1, kappa, N297G, V domains shown)
VH: B7 VH with E46V, Q55S, N59S, Y95F
VL: B7 VL
B17: 11C1.006 (antibody, human IgG1, kappa, N297G, V domains shown)
VH: B7 VH with E46V, Q55S, E57D, N59S, Y95F, A97T
VL: not shown
B18: 11C1.005 (antibody, human IgG1, kappa, N297G, V domains shown)
VH: B7 VH with E46V, Q55S, N59S, Y95F, A97T
VL: not shown
B19: 11C1 (antibody, human IgG1, kappa, N297G, V domains shown)
VH: B7 VH with E46V, Q55S, E57D, N59S, Y95F, A97T
VL: B7 VL
B20: 12H11.012 (antibody, human IgG1, kappa, N297G, V domains shown)
VH: B7 VH with Q55N
VL: not shown
B21: 11C1.003 (antibody, human IgG1, kappa, N297G, V domains shown)
VH: B7 VH with E46V, Q55S, E57D, N59S, Y95F
VL: not shown
B22: 11C1.007 (antibody, human IgG1, kappa, N297G, V domains shown)
VH: B7 VH with E46V, Q55S, N59S, Y95F, A97T
VL: B7 VL
B23: 12H11.011 (antibody, human IgG1, kappa, N297G, V domains shown)
VH: B7 VH with E57D
VL: not shown
B24: 12H11.009 (antibody, human IgG1, kappa, N297G, V domains shown)
VH: B7 VH
VL: not shown
B25: 12H11 (antibody, human IgG1, kappa, N297G, V domains shown)
VH: B7 VH with Q55N, E57D, A97T
VL: B7 VL
B26: 4H9.004 (antibody, human IgG1, kappa, N297G, V domains shown)
VH: QVQLVESGGGVVQPGRSLRLSCAASGFTFSYFGMHWVRQAPGKGLEWVAVIWYDGSNKYYADSVKGRFTISRDNSKNTLYLQMNSLRAEDTAVYYCARDGTIFGVLLGDYWGQGTLVTVSS
VL: DIQMTQSPSSLSASVGDRVTITCRASQGIRNELGWYQQKPGKAPKRLIYGASSLQSGVPSRFSGSGSGTEFTLTISSLQPEDFVTYYCLQHNSYPFTFGPGTKVDVKR
B27: 17B11.002.001 (antibody, human IgG1, lambda, N297G, V domains shown)
VH: QMQLVQSGAEVKKPGASVKVSCKASGYTFTSYDINWVRQATGQGLEWMGWMNPNSGGTGYAQKFQGRVTMTRDTSISTAYMELSSLRSQDTAVYYCARGGDYVWGSYRPYYYYYGMDVWGQGTTVTVSS
VL: QSVLTQPPSVSAAPGQKVTISCSGSSSNIGNNYVSWYQQLPGTAPKLLIYDNNKRPSGIPDRFSGSKSGTSATLGITGLQTGDEADYYCGTWDSSLSAVVFGGGTKLTVLG
B28: 17B11.002 (antibody, human IgG1, lambda, N297G, V domains shown)
VH: B27 VH with G57N
VL: B27 VL with Q38E, L40F
B29: 17B11.002.003 (antibody, human IgG1, lambda, N297G, V domains shown)
VH: B27 VH
VL: B27 VL with Q38E, L40F
B30: 17B11.002.005 (antibody, human IgG1, lambda, N297G, V domains shown)
VH: B27 VH
VL: B27 VL with G75A
B31: 17B11.002.004 (antibody, human IgG1, lambda, N297G, V domains shown)
VH: B27 VH with T41P, Q89D
VL: B27 VL with G75A, W92F, D93E
B32: 17B11.002.002 (antibody, human IgG1, lambda, N297G, V domains shown)
VH: B27 VH with G57N
VL: B27 VL
B33: 18E3.005 (antibody, human IgG1, kappa, N297G)
heavy: not shown
light: EIVLTQSPGTLSLSPGERATLSCRASQSISYSYLAWYQQKPGQAPRLLIYGASSRATGIPDRFSGSGSGTDFTLTISRLEPDDFAVYYCQQYGSSPLTFGGGTKVEIKRTVAAPSVFIFPPSDEQLKSGTASVVCLLNNFYPREAKVQWKVDNALQSGNSQESVTEQDSKDSTYSLSSTLTLSKADYEKHKVYACEVTHQGLSSPVTKSFNRGEC
B34: 18E3.006 (antibody, human IgG1, kappa, N297G)
heavy: not shown
light: B33 light
B35: 18E3.008 (antibody, human IgG1, kappa, N297G)
heavy: not shown
light: B33 light with L79Q
B36: 18E3.007 (antibody, human IgG1, kappa, N297G)
heavy: not shown
light: B33 light with L79Q
B37: 2C2.005.013 (antibody, human IgG1, lambda, N297G, V domains shown)
VH: QMQVVQSGAEVKKPGASVKVSCKASGYTFTGYYMHWVRQAPGQGLEWMGWINPNSGGTNYAQKFQGRVTMTRDTSISTAYMELSSLRSDDTAVYYCARGGDYVFGTYRPHYYYGMDVWGQGTTVTVSS
VL: not shown

Where a chain is given by its changes, count along the chain named.

For this assay, the target named is T1, Rhesus GIPR (rhesus, UniProt F7E1R9 22-466).
T1 sequence: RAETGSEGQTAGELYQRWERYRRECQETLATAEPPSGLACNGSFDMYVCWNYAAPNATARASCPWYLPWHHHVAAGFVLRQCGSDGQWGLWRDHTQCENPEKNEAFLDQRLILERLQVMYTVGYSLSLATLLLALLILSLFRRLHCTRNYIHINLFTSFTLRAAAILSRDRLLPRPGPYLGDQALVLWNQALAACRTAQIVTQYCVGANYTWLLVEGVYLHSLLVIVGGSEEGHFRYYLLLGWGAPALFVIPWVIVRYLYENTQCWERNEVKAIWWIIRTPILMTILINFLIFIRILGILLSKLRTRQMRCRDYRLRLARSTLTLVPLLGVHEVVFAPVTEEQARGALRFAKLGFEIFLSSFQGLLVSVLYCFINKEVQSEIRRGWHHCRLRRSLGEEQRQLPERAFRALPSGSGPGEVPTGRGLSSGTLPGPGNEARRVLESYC
The assay is described as follows: cell-based or functional assay.
For B1, the “Rhesus GIPR CAMP Assay (Conc. mAb @ 60% Inhibition in nM)” value worked out at 0.66 nM. To B2 belongs 0.67 nM; to B3, 0.56 nM; to B4, 0.95 nM.

In the case of B5, the “Rhesus GIPR CAMP Assay (Conc. mAb @ 60% Inhibition in nM)” value amounted to 0.83 nM. To B6 belongs 0.92 nM; to B7, 0.45 nM. To B8 belongs 0.61 nM; to B9, 0.43 nM; to B10, 0.39 nM. Turning to B11, the “Rhesus GIPR CAMP Assay (Conc. mAb @ 60% Inhibition in nM)” value is 0.59 nM. To B12 belongs 0.56 nM; to B13, 0.71 nM; to B14, 0.56 nM. To B15 belongs 0.6 nM; to B16, 0.33 nM; to B17, 0.51 nM. As for B18, the “Rhesus GIPR CAMP Assay (Conc. mAb @ 60% Inhibition in nM)” value came out at 0.42 nM. Turning to B19, the “Rhesus GIPR CAMP Assay (Conc. mAb @ 60% Inhibition in nM)” value is 0.65 nM. To B20 belongs 0.57 nM; to B21, 0.48 nM. To B22 belongs 0.4 nM.

In the case of B23, the “Rhesus GIPR CAMP Assay (Conc. mAb @ 60% Inhibition in nM)” value was 0.47 nM. Regarding B24, the “Rhesus GIPR CAMP Assay (Conc. mAb @ 60% Inhibition in nM)” value is 0.6 nM. To B25 belongs 0.79 nM; to B26, 0.43 nM.

With B27, the “Rhesus GIPR CAMP Assay (Conc. mAb @ 60% Inhibition in nM)” value is 0.29 nM. To B28 belongs 0.21 nM.

As for B29, the “Rhesus GIPR CAMP Assay (Conc. mAb @ 60% Inhibition in nM)” value is 0.08 nM.

B30: the “Rhesus GIPR CAMP Assay (Conc. mAb @ 60% Inhibition in nM)” value worked out at 0.08 nM. B31: the “Rhesus GIPR CAMP Assay (Conc. mAb @ 60% Inhibition in nM)” value came to 0.17 nM. For B32, the “Rhesus GIPR CAMP Assay (Conc. mAb @ 60% Inhibition in nM)” value was determined as 0 nM.

On to B33, for which the “Rhesus GIPR CAMP Assay (Conc. mAb @ 60% Inhibition in nM)” value was 0.1 nM. To B34 belongs 0.12 nM; to B35, 0.37 nM; to B36, 0.24 nM. On to B37, for which the “Rhesus GIPR CAMP Assay (Conc. mAb @ 60% Inhibition in nM)” value stood at 1.23 nM.
